According to patent US20120244161A1 (published 2012):

Target: T1, EpCAM on KatoIII cells (human, UniProt P16422 24-314)
T1 sequence (looked up): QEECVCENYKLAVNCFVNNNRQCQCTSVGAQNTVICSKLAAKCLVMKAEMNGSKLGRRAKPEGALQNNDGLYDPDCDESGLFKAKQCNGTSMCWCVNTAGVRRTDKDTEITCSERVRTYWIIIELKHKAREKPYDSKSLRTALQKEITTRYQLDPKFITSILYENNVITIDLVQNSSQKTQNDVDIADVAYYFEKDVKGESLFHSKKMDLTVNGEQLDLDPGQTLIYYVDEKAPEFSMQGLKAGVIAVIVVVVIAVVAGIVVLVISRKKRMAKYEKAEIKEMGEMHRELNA
Test: cell-based or functional assay

B1: EpCAMxCD3 bispecific single chain antibody MT110 (bispecific antibody)
chain: ELVMTQSPSSLTVTAGEKVTMSCKSSQSLLNSGNQKNYLTWYQQKPGQPPKLLIYWASTRESGVPDRFTGSGSGTDFTLTISSVQAEDLAVYYCQNDYSYPLTFGAGTKLEIKGGGGSGGGGSGGGGSEVQLLEQSGAELVRPGTSVKISCKASGYAFTNYWLGWVKQRPGHGLEWIGDIFPGSGNIHYNEKFKGKATLTADKSSSTAYMQLSSLTFEDSAVYFCARLRNWDEPMDYWGQGTTVTVSSGGGGSDVQLVQSGAEVKKPGASVKVSCKASGYTFTRYTMHWVRQAPGQGLEWIGYINPSRGYTNYADSVKGRFTITTDKSTSTAYMELSSLRSEDTATYYCARYYDDHYCLDYWGQGTTVTVSSGEGTSTGSGGSGGSGGADDIVLTQSPATLSLSPGERATLSCRASQSVSYMNWYQQKPGKAPKRWIYDTSKVASGVPARFSGSGSGTDYSLTINSLEAEDAATYYCQQWSSNPLTFGGGTKVEIK
- EC50 of CD25 upregulation on CD4+ T lymphocytes, human PBMC with 0.2% KatoIII cells, 40 h, flow cytometry: 3.5 ng/mL
- EC50 of CD25 upregulation on CD4+ T lymphocytes, human PBMC with 2% KatoIII cells, 40 h, flow cytometry: 2.35 ng/mL
- EC50 of CD25 upregulation on CD4+ T lymphocytes, human PBMC with 10% KatoIII cells, 40 h, flow cytometry: 0.8 ng/mL
- EC50 of CD25 upregulation on CD8+ T lymphocytes, human PBMC with 0.2% KatoIII cells, 40 h, flow cytometry: 5.98 ng/mL
- EC50 of CD25 upregulation on CD8+ T lymphocytes, human PBMC with 2% KatoIII cells, 40 h, flow cytometry: 0.99 ng/mL
- EC50 of CD25 upregulation on CD8+ T lymphocytes, human PBMC with 10% KatoIII cells, 40 h, flow cytometry: 0.26 ng/mL
